In publication PMC9293771:

Molecular target: N-terminally truncated N-terminally His6-tagged human aspartate/asparagine-β-hydroxylase (His6-AspH315–758) (human) (UniProt Q12797)
Sequence of UniProt Q12797 (Q12797 315-758): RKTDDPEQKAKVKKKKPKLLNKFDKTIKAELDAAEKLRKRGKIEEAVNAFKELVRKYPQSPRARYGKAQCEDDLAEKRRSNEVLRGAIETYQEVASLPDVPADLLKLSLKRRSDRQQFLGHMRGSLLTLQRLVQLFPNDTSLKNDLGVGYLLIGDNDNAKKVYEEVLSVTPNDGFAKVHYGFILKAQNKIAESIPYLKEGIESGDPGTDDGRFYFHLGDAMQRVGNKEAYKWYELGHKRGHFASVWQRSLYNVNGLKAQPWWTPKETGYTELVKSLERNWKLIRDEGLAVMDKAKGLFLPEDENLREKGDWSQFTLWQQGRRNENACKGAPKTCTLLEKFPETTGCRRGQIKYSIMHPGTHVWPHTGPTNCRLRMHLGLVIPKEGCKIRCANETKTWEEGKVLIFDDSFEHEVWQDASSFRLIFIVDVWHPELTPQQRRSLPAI

| Km of AspH for the peptide substrate, steady-state kinetics of hydroxylation by SPE-MS (0.1 μM His6-AspH315–758, 50 mM Hepes, pH 7.5, 20 °C) | Substance |
| --- | --- |
| 47 μM | hLYPD6B-CP65–83, thioether-bridged cyclic peptide derived from the LU domain of human LYPD6B (from UniProt Q8NI32 65-83) |
| 7.9 μM | hHMCN1-CP5164–5182, thioether-bridged cyclic peptide derived from EGFD2 of human hemicentin-1 (from UniProt Q96RW7 5164-5182) |
